In the assay the target is mannose receptor (UniProt Q61830). Briefly: cell-based or functional assay.
Chain of mannose receptor (Q61830 20-1456 limits assumed): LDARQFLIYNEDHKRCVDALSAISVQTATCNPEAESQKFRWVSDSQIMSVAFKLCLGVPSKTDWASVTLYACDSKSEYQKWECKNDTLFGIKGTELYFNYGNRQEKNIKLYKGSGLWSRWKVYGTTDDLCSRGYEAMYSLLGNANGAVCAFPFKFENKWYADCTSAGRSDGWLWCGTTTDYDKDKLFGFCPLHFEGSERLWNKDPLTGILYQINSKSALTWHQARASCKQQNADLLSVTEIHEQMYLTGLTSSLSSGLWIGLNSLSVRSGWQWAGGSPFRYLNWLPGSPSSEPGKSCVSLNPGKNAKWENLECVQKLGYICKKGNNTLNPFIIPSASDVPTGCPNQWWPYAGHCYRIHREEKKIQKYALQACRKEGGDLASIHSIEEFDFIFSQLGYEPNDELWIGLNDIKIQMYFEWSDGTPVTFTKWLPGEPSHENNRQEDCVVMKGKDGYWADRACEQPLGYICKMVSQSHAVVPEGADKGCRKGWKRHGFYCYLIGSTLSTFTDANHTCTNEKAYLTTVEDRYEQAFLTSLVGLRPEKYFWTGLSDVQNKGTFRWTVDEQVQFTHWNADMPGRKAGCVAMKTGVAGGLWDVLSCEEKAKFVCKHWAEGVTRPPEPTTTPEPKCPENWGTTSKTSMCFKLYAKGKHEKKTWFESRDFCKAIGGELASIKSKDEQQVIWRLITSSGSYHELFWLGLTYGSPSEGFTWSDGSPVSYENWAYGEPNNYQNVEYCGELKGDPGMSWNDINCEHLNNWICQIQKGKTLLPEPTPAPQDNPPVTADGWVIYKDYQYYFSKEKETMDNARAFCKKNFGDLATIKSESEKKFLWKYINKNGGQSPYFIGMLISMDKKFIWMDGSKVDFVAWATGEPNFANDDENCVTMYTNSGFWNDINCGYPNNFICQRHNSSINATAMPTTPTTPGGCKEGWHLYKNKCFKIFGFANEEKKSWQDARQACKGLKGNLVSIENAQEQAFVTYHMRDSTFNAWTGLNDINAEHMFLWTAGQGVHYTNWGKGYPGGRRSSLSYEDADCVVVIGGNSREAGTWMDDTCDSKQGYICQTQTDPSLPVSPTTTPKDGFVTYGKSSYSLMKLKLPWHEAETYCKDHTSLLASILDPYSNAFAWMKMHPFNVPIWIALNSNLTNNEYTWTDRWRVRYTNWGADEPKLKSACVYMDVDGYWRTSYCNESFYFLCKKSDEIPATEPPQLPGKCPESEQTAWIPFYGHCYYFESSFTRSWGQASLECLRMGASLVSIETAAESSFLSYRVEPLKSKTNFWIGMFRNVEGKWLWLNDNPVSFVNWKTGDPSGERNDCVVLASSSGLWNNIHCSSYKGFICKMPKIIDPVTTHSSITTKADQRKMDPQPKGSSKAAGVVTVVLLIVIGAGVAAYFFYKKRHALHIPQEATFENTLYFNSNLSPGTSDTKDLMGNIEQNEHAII

On to SapC-DOPS-GCase nanovesicles, for which the GCase uptake (net GCase activity) blocked by mannan in J774E macrophages or Gba1-/- neurons is 20%.

Source of the values: US20230103407A1.
